Reference: PMC3021567, “Gene expression profiling of connective tissue growth factor (CTGF) stimulated primary human tenon fibroblasts reveals an inflammatory and wound healing response in vitro” (Molecular Vision, 2011)

Biological target: T1, recombinant human connective tissue growth factor (human, UniProt P29279 27-349)
T1 construct: signal peptide in the construct; connective tissue growth factor (CTGF), human, cDNA for full-length rhCTGF aa 1-349, Swiss-Prot P29279; secreted into the supernatant of HEK293T cells; The purified protein runs as two bands, 36 kDa (unglycosylated) and 38 kDa (glycosylated); No tag is mentioned; also called hCTGF; rhCTGF
T1 sequence (looked up): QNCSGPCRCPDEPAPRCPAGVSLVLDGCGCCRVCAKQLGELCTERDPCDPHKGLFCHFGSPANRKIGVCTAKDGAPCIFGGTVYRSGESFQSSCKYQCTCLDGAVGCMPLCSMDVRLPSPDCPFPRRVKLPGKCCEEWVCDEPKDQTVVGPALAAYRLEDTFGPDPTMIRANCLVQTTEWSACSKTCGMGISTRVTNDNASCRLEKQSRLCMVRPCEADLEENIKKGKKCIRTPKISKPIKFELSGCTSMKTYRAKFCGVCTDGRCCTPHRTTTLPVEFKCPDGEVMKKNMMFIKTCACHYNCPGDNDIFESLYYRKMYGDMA
Assay: SPR; BIACORE 2000; biotinylated BMP-2 immobilised on a streptavidin-coated CM5 chip at about 500 RU; CTGF flowed over at 10 ul/min, 25 °C; association 5 min, dissociation 3 min; regeneration with 4 M MgCl2; kinetic data fitted to a 1:1 Langmuir model; two independent experiments, at least six concentrations; apparent KD
Conditions: both partners purified

B1: bone morphogenetic protein 2 (ligand, UniProt P12643 283-396, looked up)
chain: QAKHKQRKRLKSSCKRHPLYVDFSDVGWNDWIVAPPGYHAFYCHGECPFPLADHLNSTNHAIVQTLVNSVNSKIPKACCVPTELSAISMLYLDENEKVVLKNYQDMVVEGCGCR
modifications: biotin (biotinylated BMP-2; site not stated)
notes: bone morphogenetic protein 2 (BMP-2); also called BMP-2; source: expressed and purified as described [19]
B1 showed a Kd of 400 nM.
